Source: publication PMC4113996, “Prediction and characterization of enzymatic activities guided by sequence similarity and genome neighborhood networks” (eLife, 2014)

Experiments:
Assay in all cases: purified protein
[1] = substrate: O=C(O)[C@H]1NCC[C@@H]1O; assay type: biochemical, Agrobacterium fabrum; conditions: t3HypD (dehydration) reaction, 50 mM Na-phosphate pH 8.0, 1 mM DTT, 25°C
[2] = substrate: O=C(O)[C@H]1NCC[C@@H]1O; conditions: t3HypD (dehydration) reaction, 50 mM Na-phosphate pH 8.0, 1 mM DTT, 25°C
[3] = substrate: O=C(O)[C@H]1NCC[C@@H]1O; assay type: biochemical, Burkholderia ambifaria; conditions: t3HypD (dehydration) reaction, 50 mM Na-phosphate pH 8.0, 1 mM DTT, 25°C
[4] = substrate: O=C(O)[C@@H]1C[C@@H](O)CN1; assay type: biochemical, Agrobacterium fabrum; conditions: 4HypE reaction (start from t4Hyp as in Figure 1), 50 mM Na-phosphate pH 8.0, 1 mM DTT, 25°C
[5] = substrate: O=C(O)[C@@H]1C[C@@H](O)CN1; assay type: biochemical, Roseibium aggregatum; conditions: 4HypE reaction (start from t4Hyp as in Figure 1), 50 mM Na-phosphate pH 8.0, 1 mM DTT, 25°C
[6] = substrate: O=C(O)[C@@H]1C[C@@H](O)CN1; assay type: biochemical, Paracoccus denitrificans; conditions: 4HypE reaction (start from t4Hyp as in Figure 1), 50 mM Na-phosphate pH 8.0, 1 mM DTT, 25°C
[7] = substrate: O=C(O)[C@@H]1C[C@@H](O)CN1; assay type: biochemical, Shewanella loihica; conditions: 4HypE reaction (start from t4Hyp as in Figure 1), 50 mM Na-phosphate pH 8.0, 1 mM DTT, 25°C
[8] = substrate: O=C(O)[C@@H]1C[C@@H](O)CN1; assay type: biochemical, Streptosporangium roseum; conditions: 4HypE reaction (start from t4Hyp as in Figure 1), 50 mM Na-phosphate pH 8.0, 1 mM DTT, 25°C
[9] = substrate: O=C(O)[C@H]1NCC[C@@H]1O; assay type: biochemical, Gillisella ampelina; conditions: t3HypD (dehydration) reaction, 50 mM Na-phosphate pH 8.0, 1 mM DTT, 25°C
[10] = substrate: O=C(O)C1=NCCC1; conditions: 0.16 mM NADPH, 50 mM Tris-HCl pH 7.6, 25°C

B1: Atu4684 (A9CH01) (Agrobacterium fabrum str. C58) (protein)
chain: MRSIKTVHVISAHAEGEVGDVIVGGVKPPPGETIWEQSRFIARDETLRNFVLNEPRGGVFRHVNLLVPPKHPDADAAFIIMEPEDTPPMSGSNSICVSTVLLDGGIVPMQEPETHMLLEAPGGLVKVRAECRNGKAERIFVQNLPSFAAKLDAELEVEGLGKLKVDTAYGGDSFVIVDAEAMGFSLKPEEAHEIARLGVRITNAANKALGFDHPENPDWRHFSFCLFAGKVERTAEGLRAGAAVAIQPGKVDRSPTGTALSARMAVLHARGEMKEGETLTAVSLIGSTFTGRILGTTTVGDRPAILPEISGRGWITGIHQHMLDPSDPWPEGYRLTDTWGAR
Km [1]: 4.2 ± 0.8 mM | kcat [1]: 27 ± 1 s⁻¹

B2: SM_b20270 (Q92WR9) (Sinorhizobium meliloti 1021) (protein)
chain: MRSTKTIHVISAHAEGEVGDVIVGGVAPPPGDTIWEQSRWIAREQTLRNFVLNEPRGGVFRHVNLLVPPKHPDADAAFIIMEPEDTPPMSGSNSICVSTVLLDSGILPMKEPVTEITLEAPGGLVRVRAECRDGKAERIFVENLPSFAERLDAKLEVEGLGTLTVDTAYGGDSFVIVDAAAMGFALKPDEAHDIARLGVRITNAANAKLGFHHPENPDWRHFSFCLFAGPVERTAEGLRAGAAVAIQPGKVDRSPTGTALSARMAVLHARGQMGLSDRLTAVSLIGSTFSGRILGTTEVGGRPAVLPEISGRAWITGTHQHMLDPSDPWPEGYRLTDTWGAR
Km [2]: 3.8 ± 0.4 mM | kcat [2]: 7.9 ± 0.2 s⁻¹

B3: SIAM614_28502 (A0NXQ9) (Roseibium aggregatum IAM 12614) (protein)
chain: MRSTKTIHVISCHAEGEVGDVIVGGVAPPPGETLWEQRSFIARDQTLRNFVLNEPRGGVFRHVNLLVPPRHPEADAAFIIMEPEDTPPMSGSNSICVSTVLLDGGIVPMIEPITEMVLEAPGGLVRVKAECRNGKAERIFVQNVTSFADKLSVPLDVEGIGTLTVDTAYGGDSFVVVDAEALGFAIVEDEAKDIARLGVRITNAANEQLGFSHPENPDWNHISFCAFCGPLSQTPTGLTGRSAVAIQPGKVDRSPTGTAVSARMALMAARGQMTIGDTFEAVSIIGSSFTGRIVSQQMAGDRPGIVPEISGRGWITGIHQHMLDPSDPWPGGYKLSDTWGA
Km [2]: 7.8 ± 1 mM | kcat [2]: 15 ± 0.9 s⁻¹

B4: Bamb_3769 (Q0B950) (Burkholderia ambifaria AMMD) (protein)
chain: MKISRSLSTVEVHTGGEAFRIVTSGLPRLPGDTIVQRRAWLKENADEIRRALMFEPRGHADMYGGYLTEPVSPTADFGVIFLHNEGYSDHCGHGVIALSTAAVELGWVQRTVPETRVGIDAPCGFIEAFVQWDGEHAGPVRFVNVPSFIWRRDVSVDTPSFGTVTGDIAYGGAFYFYVDGAPFDLPVREAAVEKLIRFGAEVKAAANAKYPVVHPEIPEINHIYGTIIANAPRHPGSTQANCCVFADREVDRSPTGSGTGGRVAQLYQRGVLAAGDTLVNESIVGTVFKGRVLRETMVGDIPAVIPEVEGSAHICGFANWIVDERDPLTYGFLVR
Km [3]: 13 ± 3 mM | kcat [3]: 43 ± 4 s⁻¹

B5: Atu0398 (A9CKB4) (Agrobacterium fabrum str. C58) (protein)
chain: MRWKRTLQLLDVHCEGEIGRVVTGGAPKIPGNTVAEQLHWMNTDPQGEALRRFLTLEPRGTPMGSVDLLLPPKHPDAHAAFVILQPDQAHASSGSNSICATTALLESGMVEMQEPETVIILETAAGLVKATATCRDGRCEKVKLTMVPSFVHELDVSIDTPEWGRVTMDISYGGIFYALVDVRQIGLTIEKANAAKLVAAGMTLKDLVNREMTVVHPEIPAISGVAYVMFRDVDADGSIRTCTTMWPGRADRSPCGTGNSANLATLYARGKVKVGDEYKSRSIIGSEFDVGLSAVTEVAGRPAVIPTIAGRGFTFGLHQVGLDPFDPLGDGFAMTDVWGPEAGNI
Km [4]: 4.6 ± 2 mM | kcat [4]: 0.86 ± 0.1 s⁻¹

B6: SIAM614_28492 (A0NXQ7) (Roseibium aggregatum IAM 12614) (protein)
chain: MRVIDSHTAGEPTRVVLDGGPDLGSGTLAERAARLEAEHLDFCASVVLEPRGHDAIIGALLVPPSDPACAAGVIYFNNLQNLGMCGHATIGLGVTLAHLGRIRPGRHRFETPVGVVEIDLIDANTVSVVNIESYRLAKDVTVEVEGVGPVTGDVAWGGNWFFLVKNSPIALTGANIRPLTDLTLKIRTALEKAGVTGKDGAWIDHIELFGPAEDPAAQSRNFVLCPGGAYDRSPCGTGCSAKLACLAADGALAPGQDYLQESVIGSTYKISYQPGPGGGVIPTITGQAFVTSDATLIFNPADPYRSGIRL
Km [5]: 3.2 ± 0.5 mM | kcat [5]: 55 ± 3 s⁻¹

B7: Pden_4859 (A1BBM5) (Paracoccus denitrificans PD1222) (protein)
chain: MTQYIFPCIDGHTCGNPVRLVAGGAPRLEGATMLEKRAHFLREFDWIRTGLMFEPRGHDMMSGAILYPPTRGDCDVAVLYIETSGCLPMCGHGTIGTITMGIENGLIVPRTPGRLSIETPAGKVDIEYRQEGRHVEEVRLTNVPGFLYAEGLTAEVEGLGEIVVDVAYGGNFYAIVEPQKNFRDMADHTAGELIGWSLTLRAALNQKYEFTHPEHPQINGLSHIQWTGAPTVPGAHARNAVFYGDKAIDRSPCGTGTSARMAQLAARGRLGVGDEFWHESIIGSIFKGRIEAAATVAGRDAIIPSIAGWARQTGLNTIFIDAERDPFAHGFVVK
Km [6]: 25 ± 5 mM | kcat [6]: 16 ± 2 s⁻¹

B8: Shew_2363 (A3QFI1) (Shewanella loihica PV-4) (protein)
chain: MLKGTFFCVDAHTCGNPVRLVTSGHPDLKGRTMSEKRQDFLAQYDWIRKALMFEPRGHDMMSGAFLYPPCSDNADAAILFIETSGCLPMCGHGTIGTITAALESGLLTPKMPGQLTIDVPAGQIKVQYQQTGAKVDWVKIFNVPAYLAHKDVVLDIPGLGPLKIDVSYGGNYYAIVDPQANFPGLRHWSAGDILRWSPIVREVAHRELNCVHPDDPTVNGVSHVLWTGDTISEGSNGANAVFYGDKAIDRSPCGTGTSARLAQLYSRGELKVGDEYTHESIIGSQFVGRIEAATKVGAFDAIMPSIKGWARITGHNAITVDDNDPYAFGFQVV
Km [7]: 12 ± 3 mM | kcat [7]: 50 ± 6 s⁻¹

B9: Sros_6004 (D2AV87) (Streptosporangium roseum DSM 43021) (protein)
chain: MRTKRVFHAVDSHTEGMPTRVITGGVGVIPGSTMAERREHFLAEMDHVRTLLMYEPRGHSAMSGAILQPPTRPDADYGVLYIEVSGCLPMCGHGTIGVATVLVETGMVEVVEPVTTIRLDTPAGLVVAEVRVEDGAATAVTITNVPSFSAGLDRTVKVPGIGEVTYDLAYGGNFYAILPIESVGLPFDRAHKQQILDAGLAIMDAINEQDEPVHPLDAGIRGCHHVQFTAPGSDARHSRHAMAIHPGWFDRSPCGTGTSARMAQLHARGELPLDTDFVNESFIGTRFVGRLVEETEVTDLPAVVPTITGRAWVTGTAQYFLDPRDPFPEGFLL
Km [8]: 7.8 ± 1 mM | kcat [8]: 14 ± 0.8 s⁻¹

B10: Avi_7022 (B9K4G4) (Allorhizobium ampelinum S4) (protein)
chain: MRTNKVIHVIGVHAEGEVGDVIVGGVSPPPGDTLWEQSRFIASDETLRNFVLNEPRGGVFRHVNLLVPPKDPRAQMGFIIMEPADTPPMSGSNSICVSTAILDSGIISMQEPLTHMVLEAPGGVIEVTAECANGKAERINVLNVASFVTRLAAALEVEGLGTLTVDTAYGGDSFVIVDAIGLGFSLKPDEARELAELGMKITAAANEQLGFVHPCNADWNHISFCQMTTPITRENGILTGKSAVAIRPGKIDRSPTGTGCSARLAVMHARGEIGIGETYIGRSIIDSEFKCHIDSLTEIGGLSAIRPVISGRAWITGVSQLMLDPTDPWPSGYQLSDTWPAI
Km [9]: 15 ± 3 mM | kcat [9]: 4.3 ± 0.4 s⁻¹

B11: RSP_0854 (Q3IZJ8) (Cereibacter sphaeroides 2.4.1) (protein)
chain: MSIEIIGPEAEAHLSWDGLTTALTQGHKLPRAEVADIFLYRGKDTVLSRAAWIDGLGQLVKTATIFPGNGAAGKPTVNGAVTLYSDRDGTLEALVDFHLVTKWKTAGDSLLAAKRLARRDSREILLVGAGNVARSMIEAYGSHFPDARFTVWNRSADKARAMEGPQVRATEDLEAAVRAADIICTATMSQEPVVKGEWLKPGTHLDLIGAYRPDMREVDDEALRRATVFVDSRKTTIGHIGEIQDPLDRGILTEADIRADYYDLASGLYARRSDEEITLAKNGGGAHLDLMTASYIAAMWRQR
Km [10]: 0.43 ± 0.09 mM | kcat [10]: 66 ± 4 s⁻¹

B12: Pden_1185 (A1B196) (Paracoccus denitrificans PD1222) (protein)
chain: MARKSSAPQFLSYGDATGRLSWRDAVEALRQGHTLPQAQIRDVFLGPPTGTMMSRSAWIEGLGYGAKTFTVFDGNAARGLPTVQGAMLVFDKDDGRLQAIVDSPLVTEFKTAADSVLGASLLARPDSRHLLIVGAGTVAASLVRAYTAVLPGIERVSVWARRPQQAQDLIEGLDGIEADLAAVSDLPAAVGQADIVSSATMARQPVILGAWVRPGTHVDLIGAFKADMREADDALMARAALFVDSRETTLGHIGELMLPIASGAITAESVLGDLYDLVRPGARRRQSEDEITVFKNGGGAHLDLMIASYIARVMAG
Km [10]: 3.1 ± 0.7 mM | kcat [10]: 260 ± 20 s⁻¹

B13: PFL_1416 (Q4KGT8) (Pseudomonas protegens Pf-5) (protein)
chain: MSEYITLSLDEVCALSYQVLTRHGLSDAHARAIAEVITQGQRDECHSHGVYRLLGCVRSVREGRIDPRAEPSLRHVSPGVLEVDAHYGYSLLGFHTGLPILAEKARSQGIAAMVIKRCFHFSALWPEVEAIADYGLVGMAMNPSHSWVAPAGGRQPVFGTNPLAFAWPRPGGQPFVFDFATSAIARGDIELHARQGKPIPEHWAIDADGQPTTDAKAALQGAMQTFGGHKGSALAAMIELLAGALIGDLTSAESMAFDGGVGATPCHGELVLAFDPRVFLGEGYEQGLERAEGLFAAIARQGARLPSQRRFAARARSLEHGVQIPRGLLEDIRGLL
Km [10]: 1.1 ± 0.2 mM | kcat [10]: 20 ± 0.8 s⁻¹
